Measured values: patent US20120207760A1

Key:
Settings in all cases: remark: other sources report otherwise
[1] = biological target: T1, recombinant homotrimeric HA, A/Hong Kong/1073/99 H9N2 (Influenza A virus A/Hong Kong/1073/99 (H9N2)); assay: trimeric HA microarray, transfection set 2
[2] = biological target: recombinant homotrimeric HA, A/northern shoveler/California/HKWF115/07 (Influenza A virus A/northern shoveler/California/HKWF115/2007 (H6N1)); assay: trimeric HA microarray, transfection set 2
[3] = biological target: T1, recombinant homotrimeric HA, A/Hong …; assay: trimeric HA microarray, transfection set 3
[4] = biological target: recombinant soluble homotrimeric HA of A/Hong Kong/2108/03 (H9N2) (Influenza A virus A/Hong Kong/2108/03 (H9N2)); assay: microarray, control antibody, trimeric HA
[5] = biological target: recombinant homotrimeric HA, A/Anhui/1/05 H5N1 (Influenza A virus A/Anhui/1/05 (H5N1)); assay: trimeric HA microarray, transfection set 2
[6] = biological target: recombinant homotrimeric HA, A/Netherlands/219/03 H7N7 (Influenza A virus A/Netherlands/219/03 (H7N7)); assay: trimeric HA microarray, transfection set 2
[7] = biological target: T2, recombinant homotrimeric HA, A/Wisconsin/67/05 H3N2 (Influenza A virus A/Wisconsin/67/05 (H3N2)); assay: trimeric HA microarray, transfection set 2
[8] = biological target: recombinant homotrimeric HA, A/duck/Yangzhou/02/05 H8N4 (Influenza A virus A/duck/Yangzhou/02/2005 (H8N4)); assay: trimeric HA microarray, transfection set 2
[9] = biological target: T2, recombinant homotrimeric HA, …; assay: trimeric HA microarray, transfection set 4
[10] = biological target: T2, recombinant homotrimeric HA, …; assay: trimeric HA microarray, transfection set 5
[11] = biological target: recombinant soluble homotrimeric HA of A/Hong Kong/2108/03 - H9N2 (Influenza A virus A/HK/2108/2003 (H9N2)); assay: micro-array; captured IgG, V5-tagged trimeric HA

Binder | Trimeric HA Binding RLU [1] | Trimeric HA Binding RLU [2] | Trimeric HA Binding RLU [3] | Trimeric HA Binding: RLU [4] | Trimeric HA Binding RLU [5] | Trimeric HA Binding RLU [6] | Trimeric HA Binding RLU [7] | Trimeric HA Binding RLU [8] | Trimeric HA Binding RLU [9] | Trimeric HA Binding RLU [10] | Trimeric HA Binding: RLU [11]
TCN-523 (5248_A17) (antibody, V domains shown) VH: QVQLVQSGAEVKKPGSSVKVSCKASGGSFSNYAFSWVRQAPGQGLEWMGGTIPLLGTTNYAQKFQGRVTISADQFTSTAYMELGSLRSEDTAVYYCTRRKMTTAFDSWGQGTLVTVSS VL: QPVLTQPPSASASLGASVTLTCTLSSAYSNYKVDWYQQRPGKGPRFVMRVGTGGIVGSKGDGIPDRFSVLGSGLNRYLTIKNIQEEDESDYHCGADHGSGSNFVSPYVFGGGTKLTVL | 31300 RLU | 21200 RLU | 24200 RLU |  |  |  |  |  |  |  | 
TCN-504 (3251_K17) (antibody, V domains shown) VH: QVQLQESGPGLVKPSETLSLTCAVSGVSISNIDFYWGWIRQPPGKGLEWIGNIYYTGITFYNPSLSSRVAISIDTSKNQFSLTLTSVTAADTAMYYCARHYGDSEAINDAFDIWGQGTMLTVSS VL: EIVMTQSPATLSVSPGERATLSCRASQSVGNSLAWYQQRPGQAPRLLIYGASTRATGIPPRFSGSGSGTEFTLTISSLQTEDFAVYYCQQYINWRPLSFGGGTKVEIK |  |  |  | 454 RLU | 31000 RLU | 19300 RLU | 21600 RLU | 17800 RLU | 20600 RLU | 38100 RLU | 7 RLU
